Experimental data reported in paper PMC8621148, “Determination of the Protein-Protein Interactions within Acyl Carrier Protein (MmcB)-Dependent Modifications in the Biosynthesis of Mitomycin” (Molecules, 2021).

How the values were obtained:
MitF, reductase = target: T1, MitF, reductase (Streptomyces lavendulae NRRL 2564, UniProt Q9X5R6 1-257); test: SPR; Biacore 8K, 25 °C; MitB (5000 RU) or MitF (3000 RU) coupled to a CM5 chip in 10 mM NaAc pH 4.0; holo-MmcB flowed over (2.7-43.2 µM on MitB, 0.7-21.6 µM on MitF); details: both partners purified
T1 construct: MitF, reductase of the mitomycin C biosynthetic gene cluster, Streptomyces lavendulae NRRL 2564; source: E. coli BL21(DE3), pET30a (pJQK414), purified (Ni-NTA, FPLC); not shown: His6, N-terminal, kept
T1 sequence (looked up): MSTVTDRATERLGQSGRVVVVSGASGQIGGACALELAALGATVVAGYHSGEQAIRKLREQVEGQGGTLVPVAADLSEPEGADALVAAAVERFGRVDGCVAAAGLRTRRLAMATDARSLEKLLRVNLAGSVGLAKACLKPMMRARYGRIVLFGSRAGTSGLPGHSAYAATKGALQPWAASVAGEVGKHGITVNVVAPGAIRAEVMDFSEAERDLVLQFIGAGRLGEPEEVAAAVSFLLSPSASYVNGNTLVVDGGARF

[1] = target: MitB (intact, updated open reading frame), glycosyltransferase (Streptomyces lavendulae NRRL 2564) (UniProt Q9WW09); test: as above

stoichiometry N (MitF, reductase): 1
Kd [1]: 578 nM
koff [1]: 0.113 s⁻¹
kon [1]: 195000 M⁻¹ s⁻¹
stoichiometry N [1]: 1
B1: holo-MmcB (acyl carrier protein MmcB, tag-free) (natural protein, Streptomyces lavendulae NRRL 2564, UniProt Q9X5S0 1-93, looked up)
chain: METLTTDKIKDRLRKVLVDSLELSLDPSAVPDEGLVEKLGLDSINTIEFLIWVESEFGIEIADEDLSIKLIDSLDLLAGYVSERVNGVTAPAE
modifications: 4'-phosphopantetheine at Ser43 (holo-form)
notes: MmcB, acyl carrier protein of the mitomycin C biosynthetic gene cluster, Streptomyces lavendulae NRRL 2564; 93 amino acid residues; gene synthesised with codons optimised for E. coli; The methods name the holo form for both the pull-down and SPR; also called ACP; tag-free MmcB; not shown: His6, C-terminal, cleaved
